doi:10.1101/2021.06.15.448513

Target: PaPlaB, phospholipase B of Pseudomonas aeruginosa PA01 (gene pa2927) (P. aeruginosa PA01)
Assay: SEC-MALS

For “PaPlaB, phospholipase B of Pseudomonas aeruginosa PA01 (gene pa2927) (enzyme)”, the stoichiometry N was 7.
